The target in this assay is TX-100 cytoskeleton. Description: detergent extraction.

B1: 135-kD glycoprotein (gp135) (natural protein)
chain: HDGTIIAATSPTSGQPSTELPGGKGLITTAKTIQNTDLAITGEKVMSATVSKGPLPGSSNSVSMTLAPTQKNTVIAPDQDEKVSTNPTIATSDSKGIPDLNKSILPSATNSMKPDTPVTQTAGPGAQGNPGTTVSHMTSENTEQTTSQPPPQVKPSSITPALTSIITPTSPRQPSANSTTLKPPESSSESPDKSHTASSSLGTKVVPSSSLYGTSPTRTSSVTFWGGPQSSSGTPPVPAPTPRPAATSSSTPGISSVPGTTSLPSETESLESPSSESPSQPPKLRPTGPPSSGSSGPAASLPDEGPRSSSTQRAATAPRAPSVPSPTSAQGDDRIKCESPGRLTDKMLLLNLTRSGLCAGNNSDDKLITLLCRAAKATFNPAQDQCHIRLVPIQDTQAVAIKEITVQTNLLPRDVYELLKDKWDELKEVGVSNMKLGDQGPPEETEDRFSMPLIITIVCMASFLLLVAALYGCCHQRLSQRKDQQRLTEELQTVENGYHDNPTLEVMETSSEMQEKKVVNLNGELGDSWIVPLDNLAKDDLDEEEDTHL
As for B1, the gp135 remaining (%) with the TX-100 cytoskeleton, 48-h cultures is 66.2% and the gp135 remaining (%) with the TX-100 cytoskeleton, 72-h cultures was found to be 53.4%.

The values are drawn from article PMC2115640.
